# Measured values from publication PMC2556353, “Identification of direct regulatory targets of the transcription factor Sox10 based on function and conservation”.
# B1: SOD3 mutated probe (MT) (dsDNA)
# DNA 1: GAAGAGGCAGACTGGTCTCT
# DNA 2: AGAGACCAGTCTGCCTCTTC
# B2: SOD3 probe (WT) (dsDNA)
# DNA 1: GAAGAGGCACAATGGTCTCT
# DNA 2: ACCATTGTGCCTCTTC
# What was measured:
# [1] = biological target: T1, GST-SOX10 HMG (mouse, UniProt Q04888 80-185); test: competition; unlabeled excess against labeled WT SOD3 probe; did not effectively compete; 10 mM HEPES pH 8.0, 5% glycerol, 50 mM NaCl, 5 mM MgCl2, 2 mM DTT, 0.1 mM EDTA, 4 ug BSA, 2 ug poly(dIdC) in 35 ul; 25 min at room temperature; 5% PAGE in 1x TBE; conditions: protein: recombinant; tags: N-terminal GST (pGEX-4T-1); blunt
# [2] = biological target: T1, GST-SOX10 HMG; test: EMSA; specific unlabeled probe abrogates the complex; 10 mM HEPES pH 8.0, 5% glycerol, 50 mM NaCl, 5 mM MgCl2, 2 mM DTT, 0.1 mM EDTA, 4 ug BSA, 2 ug poly(dIdC) in 35 ul; 25 min at room temperature; 5% PAGE in 1x TBE; conditions: protein: recombinant; tags: N-terminal GST (pGEX-4T-1); label: 32P end label (probe); 3' overhang 4 nt on strand 1 as printed (20-mer/16-mer)
# T1 sequence (Q04888 80-185): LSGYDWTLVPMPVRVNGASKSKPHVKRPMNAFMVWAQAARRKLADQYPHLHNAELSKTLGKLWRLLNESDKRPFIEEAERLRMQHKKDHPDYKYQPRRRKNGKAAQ
binder,measurement,setting,value
B1,binding result,[1],no binding
B2,binding result,[2],binds
